The values below come from a protein production outcome set (Wang et al. 2014).

The series can be described thus: label from the status in PepcDB records.
Turning to “MHVPIRLLEWFKVEQTLVIQKKKRFGFSQGIGITLLIAIVAKYLAELPFLNIMGQLVIAILIGMVWRAAIGVPHDAIAGTNFASKKLLRFGIILLGMRLNLVDIAKAGPKVLVIAAVVITFTIFVVYGLTKVFKVEKKLGILTACGTAICGAAAVVAIAPQVKAKDDETAVGAAIIAILGTIFTLIYTLLYPVLGLSPYGYGVFSGATLHEIAHVIAAAAPGGSAAVDIAVIVKLTRVAMLVPVAILIGLWFGKSEGSKEKRSWRDLPIPWFIFGFLAMSAVHSLGIIPEVVAGYIVVIAYMLIAMAMAGLGLNVEFKTFRKLGSKAFVAGLIGSVCLSVLGYVLVYALGFM”, the protein production entry is “failed”. On to “MHVSSGRWVYGLFLALLTALLWGILPIKLKQVLQVMDPVTVTWFRLTVSGGCLLAYLAAVGRLPRWRVLGPKGIWLVPISVCGLVGNYVLYLMGLNLLSPGTAQLVVQMGPILLLIASLFVFKERFSLGQGLGLLVLLIGFGLFFNQRLSELLTSLSDYTAGVLTILAASAVWTFYALGQKQLLSVWNSLQVMMVIYLFCALLLTPWAHPLEALEVNPLQGWLLLGCCLNTLIAYGAFAEALAHWEASRVSATLAITPLVTFVAVAWAAWLWPEYVQAEQINGLGYGGALLVVLGSALTALGPSLMAGLRARRQRIAAG”, for which the protein production result was “failed”. On to “MHVYESDVSWIDDRRTEVSVGDHRIEVDSPPEFGGPEGQLYPETLFPSVLASCLLTTFLEFKDRMGINLKSWNSHVTAELGPSPEKGFKFHRIKIHVKIGVNDEDKEKIPRAMQLAEKYCFISRAIRNNVEEIVDYEFV”, for which the protein production result was “not failed”. As for “MIAAYENSKWEPVKWENDMHCAVKIQDKNQWRRGQIIRMVTDTLVEVLLYDVGVELVVNVDCLRKLEENLKTMGRLSL”, the protein production result is “not failed”. As to “MIADDPHLELRLAASERDLRAAQRLRYTVFVEELGGDGDLVDHAERLERDEFDDLCDHLLLIDRRRDAAALEDVVGVYRLLPGERAAGAGRFYCDSEYDLDPLRASGRRVLELGRSCVHPDYRGGAAVFLLWSGLADYALAQRTELLFGVASFHGTDIEALAEPLSYLHAFHLAPEELRVRARSEGGQRMDLIPPERIDRRAAMLA”, the protein production entry was “not failed”. Regarding “MIAGFDAKLVASADTPLTIGNVPSGMEALLLADMARAGTSVAYVMSDGQRVADLEQILGFVAPDIPVLTLPAWDCLPYDRVSPSADTSARRLAALAGLINHAKKPHPAVVLVTVNAMLQKMAPRDVIESLGFSARPGNQIRMEDIAARLERNGFDRVATVREVGEFAVRGGILDVFVPGTEEPVRLDFFGDTLESIRTFDPASQRTIAQARSLDLNPMSEVTLTPDTIGRFRKNYLSLFGAATRDDALYQAVSEGRRYAGMEHWLPLFYEQLETAFDYLKGFRIVTDHTAKEAAKERSKLVLDYYEARRASGETKGSTQGAPYKPVSPGQIYLDGKSFEAALASVNAVRLTPFNEHDSEGRPVATLDAHVGPRWARPPTEGDSEERVNVFDLAVKHIAERRAKGWKVLITGWSEGSLDRLLQVLNEHGLEKIKPVTSLKEVKKLGKGEAACAVLSLEAGFETGTLAVIGEQDILGDRMVRRSKRRKRGADFIAEVAGLDEGSLVVHAEHGIGRFVGLQTIEAAGAPRACLELHYADDAKLFLPVENIDLLSRYGSDAAEATLDKLGGGAWQMRKAKLKKRLLDMADELIRIAAARLVRHAPALIAPDGLYDEFAARFPYDETEDQLNAIEAVRDDLGAGRPMDRLICGDVGFGKTEVALRAAFLAAMNGVQVAVVVPTTLLARQHFRTFSERFRGLPIRVQQASRLVGSKELALTKKEVAEGKTDIVVGTHALLGAGISFANLGLLIIDEEQHFGVKHKERLKELKSDVHVLTLSATPIPRTLQLAMTGVRELSLITTPPVDRMAVRTFISPFDPLVIRETLMREHYRGGQSFYVCPRLADLADIHAFLQSDVPELKVAVAHGQMAAGELEDIMNAFYDGKYDVLLSTTIVESGLDVPTANTLIVHRADMFGLAQLYQLRGRVGRSKVRAFALFTLPVNKVLTTMAERRLKVLQSLDTLGAGFQLASHDLDIRGAGNLLGEEQSGHIKEVGFELYQQMLEEAVAEVKGDEEVRDSGWSPQISVGTSVMIPEDYVPDLHLRMGLYRRLGELADISEIDGFGAEMIDRFGPLPKEVQHLLKIVYIKSLCRTANVEKVDAGPKGVVVQFRNKEFPNPAALVGYIGKQGSMAKIRPDHSLFLNRDLPTPEKRLTGAAMVMTQLAELARS”, the protein production entry is listed as “failed”. On to “MIAHMTRDNEYKTIKDRLITLVEKEQAHRTLNQYNSDKANHDITRLSNKMRLLRRLIEHPVILNEKVSSLGNNTKRAVKGLATGLVMVAVTITAISARDYWGEITASFIIAMSFIYALREIFKDDLRDMLWRWISKGKAKWRRHYFDPTTGKQVGDKEEWLDYKKLSELPDRIQAIRKKRIVQREEQILHYRSHTEMSTSRFMSGYEETRETMMIDLRAIMRQMDKGSNHIYQLNNGQVSRESVEKRHLLNLIAKEKHHKGEPTYYRWKIVLNRSRIVDIESIPLT”, for which the protein production result is “failed”. Consider “MIATIQNEKVIVSISDKGAELQSVRLKEDNTEYLWQGDSTYWGRRAPILFPIVGRLVDNTYYVDDKPYSLTQHGFARDLTFTVKEQSETKITYIVTSNEETLKKYPYEFELLVSYELDGQIVHVTYEVNNPTSKEMFFSIGAHPGFNFPLLEGESFTDYHLSFNGSERLETSVLEGPYLSNKKQLIAESTNELPLTYDLFKNDALIFENMNTDEISIRSHKHNKFVKVEFDGFPFVGVWTPGENAPFLCIEPWYGIADEVNPAKDFKEKKGIQSLQANETFTCRYSITIG”, for which the protein production entry is “failed”. For “MICFIKTLFVKIKRKKTSYVTFFLMPILTTLLALSLSFSNNNQAKIGILDKDNSQISKQFIAQLKQNKKYDIFTKIKKEHIDHYLQDKSLEAVLTIDKGFSDKVLQGKSQKLNIRSIANSEITEWVKAQTNYLLENYNIIGDVALGNEDTFNRILQKNQQLNYDVKQVTLTDRSRSKAVSSTTTGFLLILMLGSTSVIYSGILADKSSQLYHRLMLSNLSRFRYMLSYVCVGFVAFTIQIVIMLSLLKVFNISFFVPTSLLLIIFFLFSLLAIGFGLLIGAITQNSQQSSQLANLIVMPTSMLAGCLWPLSITPSYMQAIGKLLPQNWVLSAIAIFQSGGTLSQAWPYLLALMGTALALISFSSLLLKPTKL” the value was “failed”; for “MICKLKLLSLPSYSSKPCNFYIHLKCSELPQKIRHPFDRNHLLSLISSPKYQEGRFRCNACGKDGDRLAYHCGDCGIDLHTVCANMPSRVTHQSHPHHQLSLTFSMPPGGPGSAAASSFQCCVCRGLGSNSWLYSCGECSGFDAHL”, “failed”; for “MICRTIVEGTTKISVPVPPPDANFPPSAAPVFYNPEMELNRDINVAATAAFVERLLSKKDILREEIRYVDAFSASGIRGLRIAGEVGIHSTMNDWSHEAFELIKENIKINGLEEKAQATRRNANVLLHEQRFHIVDVDPFGTPSPYLDAAASSAYSMLSVTATDTAPLCGAHLNSGIRKYASVPLNTEYHSEMGLRVLLGACARELAKHEKGMLPLLSHVTRHYVRTYLEVLPGSRKADKTLKSMGFVAHCPRCGFRKPVYGLAVHIEKECPECGGLTKIAGPLWLGPYREPEFCNEVISELEAHPLNTKEKVRKIITFCRDELDIPMFYDQHVICKELGASATGIESLIEALRAGGFEASRTHFTGTSFKTDAPIAEIKKIILALSG”, “failed”.
